Reference: paper PMC3229523, “Identification of Lactoferricin B Intracellular Targets Using an Escherichia coli Proteome Chip” (PLoS ONE, 2011)
Ends that are not written are not given here. * marks the point of attachment. Biotin = O=C1N[C@H]2[C@H](CS[C@H]2CCCCC(=O)*)N1

Experiments:
Assay in all cases: peptide or protein array; E. coli proteome chip: purified His-tagged proteins printed in duplicate on Fullmoon slides, blocked with 1% BSA; 10 nM N-terminal biotinylated LfcinB with 1% BSA, room temperature, 1 h; detected with DyLight 649-labeled streptavidin, ratio to DyLight 549-labeled anti-His antibody; ProCAT normalisation, local cut-off; triplicate chips
Settings in all cases: both partners purified
WcaL = biological target: T1, WcaL (E. coli K-12, UniProt P71243 1-406)
T1 construct: WcaL, E. coli K-12
T1 sequence (looked up): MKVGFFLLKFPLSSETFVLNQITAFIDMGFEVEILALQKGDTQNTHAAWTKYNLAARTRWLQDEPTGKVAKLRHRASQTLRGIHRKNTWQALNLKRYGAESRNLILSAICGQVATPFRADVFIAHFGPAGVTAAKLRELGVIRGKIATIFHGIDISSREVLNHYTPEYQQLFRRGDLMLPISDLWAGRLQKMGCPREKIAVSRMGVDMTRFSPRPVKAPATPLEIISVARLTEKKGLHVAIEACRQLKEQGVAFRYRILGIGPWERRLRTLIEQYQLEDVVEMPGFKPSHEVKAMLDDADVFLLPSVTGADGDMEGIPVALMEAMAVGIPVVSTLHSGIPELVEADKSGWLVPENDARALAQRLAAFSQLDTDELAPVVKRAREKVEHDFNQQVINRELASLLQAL

YjeS = biological target: T2, YjeS (E. coli K-12, UniProt P39288 1-379)
T2 construct: YjeS, E. coli K-12
T2 sequence (looked up): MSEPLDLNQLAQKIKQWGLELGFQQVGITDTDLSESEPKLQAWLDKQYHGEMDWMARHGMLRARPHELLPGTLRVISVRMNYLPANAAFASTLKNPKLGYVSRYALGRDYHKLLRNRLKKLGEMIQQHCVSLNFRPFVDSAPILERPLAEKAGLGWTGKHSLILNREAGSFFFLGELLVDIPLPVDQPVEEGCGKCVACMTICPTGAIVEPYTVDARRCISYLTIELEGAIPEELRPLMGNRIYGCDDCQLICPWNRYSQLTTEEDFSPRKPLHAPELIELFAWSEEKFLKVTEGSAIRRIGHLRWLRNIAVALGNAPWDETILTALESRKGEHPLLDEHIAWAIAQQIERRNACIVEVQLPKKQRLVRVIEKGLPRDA

YgiG = biological target: T3, YgiG (E. coli K-12, UniProt P0AC16 1-122)
T3 construct: YgiG, E. coli K-12
T3 sequence (looked up): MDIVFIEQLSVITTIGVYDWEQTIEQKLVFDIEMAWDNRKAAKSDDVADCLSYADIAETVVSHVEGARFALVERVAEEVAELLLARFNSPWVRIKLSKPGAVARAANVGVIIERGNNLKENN

CadA = biological target: T4, CadA (E. coli K-12, UniProt P0A9H3 1-715)
T4 construct: CadA, E. coli K-12
T4 sequence (looked up): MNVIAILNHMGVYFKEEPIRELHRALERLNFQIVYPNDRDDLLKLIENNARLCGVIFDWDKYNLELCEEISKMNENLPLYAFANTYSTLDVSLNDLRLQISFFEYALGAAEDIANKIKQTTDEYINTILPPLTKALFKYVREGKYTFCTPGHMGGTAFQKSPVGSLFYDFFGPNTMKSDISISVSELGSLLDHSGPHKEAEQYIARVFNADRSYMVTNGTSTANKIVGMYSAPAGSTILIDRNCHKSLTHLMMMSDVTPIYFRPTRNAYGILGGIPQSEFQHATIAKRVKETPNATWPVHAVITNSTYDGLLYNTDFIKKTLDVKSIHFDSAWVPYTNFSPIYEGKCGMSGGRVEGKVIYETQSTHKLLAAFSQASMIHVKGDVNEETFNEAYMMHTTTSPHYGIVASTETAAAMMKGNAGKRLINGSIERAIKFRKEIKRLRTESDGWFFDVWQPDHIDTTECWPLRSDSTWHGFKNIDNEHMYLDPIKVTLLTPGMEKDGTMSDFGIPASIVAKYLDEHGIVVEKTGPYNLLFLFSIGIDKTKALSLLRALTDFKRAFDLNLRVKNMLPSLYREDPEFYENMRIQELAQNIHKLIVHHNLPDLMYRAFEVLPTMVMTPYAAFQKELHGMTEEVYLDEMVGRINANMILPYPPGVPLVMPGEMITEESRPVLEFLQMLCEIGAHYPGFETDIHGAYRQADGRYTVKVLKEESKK

Measured: binding result

B1: N-terminal biotinylated Lactoferricin B (peptide, UniProt P24627 36-60, looked up)
peptide: Biotin-FKCRRWQWRMKKLGAPSITCVRRAF
modifications: ends and bridges not checked
notes: lactoferricin B (LfcinB), cationic antimicrobial peptide of 25 amino acids; also called biotinylated LfcinB; biotin-labeled LfcinB; source: bought: Kelowna Inc
binds: all assays above
